± gives the standard deviation of the averaged measurements.

The series concerns ATP. The series is described as follows: switch fluorescence ratio, 500 uM ATP over buffer (Cy3 cluster intensity, sum of 5 cycles each) (fold (ratio)); higher = stronger signal-on switching upon ATP binding; sequences stand for … in TCGTCGGCAGCGTCAGATGTGTATAAGAGACAGTTTTTTTTTTTTTTTTTTTTTTTTT…TC. To be noted: aptamer strand: ATP DNA aptamer (quencher-CACCTGGGGGAGTATTGCGGAGGAAGG + anchor), 100 nM annealed; ATP concentration: 500 uM. The method, boiled down: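 Exposure to 500 uM ATP lasted 15 min at 22 °C before imaging, and a selection-buffer image was taken beforehand, for Cy3-labelled switching-strand clusters on a modified Illumina MiSeq flow-cell annealed to 100 nM quencher-labelled ATP aptamer. Five buffer/ATP cycles were run with NaOH stripping and re-annealing between them. The fluorescence ratio per cluster is summed target-cycle over summed buffer-cycle Cy3 intensity, averaged per switch-domain sequence. Clusters outside 100-1000 RFU were excluded.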

Consider GATGGAAAAA, for which the switch fluorescence ratio worked out at 1.04 ± 0.012. Consider TTCATTAGGA, for which the switch fluorescence ratio turned out to be 1.01 ± 0.029. With GATGGATGGA, the switch fluorescence ratio was 1.05 ± 0.026. As for GATTTGCAGG, the switch fluorescence ratio stood at 0.983 ± 0.033. On to AGTTGGAGGC, for which the switch fluorescence ratio is 0.9476 ± 0.0088. For CAGGGGTGGG, the switch fluorescence ratio came to 0.999 ± 0.058. ACCGTGTGTG: the switch fluorescence ratio was found to be 0.995 ± 0.046. Turning to TTGATGGTGG, the switch fluorescence ratio amounted to 0.987 ± 0.056.

Take TCATGAGCCA: the switch fluorescence ratio came out at 1.04 ± 0.025. Take ATGAAAATCA: the switch fluorescence ratio stood at 1.01 ± 0.019. Take AATGGTTTGC: the switch fluorescence ratio amounted to 1.13 ± 0.23. Regarding TCGTAGGGGA, the switch fluorescence ratio was 1.03 ± 0.025. TCAGAGGCTT: the switch fluorescence ratio worked out at 0.996 ± 0.04. As for GGAACATCTG, the switch fluorescence ratio was determined as 1.007 ± 0.0071. Take GGGCAAGTGT: the switch fluorescence ratio came out at 1.06 ± 0.034. For TGGGGCACCG the value was 0.994 ± 0.029. In the case of GAAAGAAGTC, the switch fluorescence ratio is 1.05 ± 0.02. Regarding GGTTTTGAAG, the switch fluorescence ratio came out at 0.9959 ± 0.0063. TGATAAAGAT: the switch fluorescence ratio stood at 1.02 ± 0.034.

As to TGTAAATTTT, the switch fluorescence ratio came out at 1.03 ± 0.041. For ATAGTATTTT the value was 0.995 ± 0.025. The same measure for CATTGTTGAG: 1.01 ± 0.049; for TTTGGAATAT: 1.04 ± 0.013. In the case of TGGGTACGCT, the switch fluorescence ratio turned out to be 1.01 ± 0.022. In the case of TTTCTTCGCT, the switch fluorescence ratio is 1.01 ± 0.046. For the sequence AAGGTGCGGG, the switch fluorescence ratio was 0.999 ± 0.023. As to TTAGGACTAG, the switch fluorescence ratio is 0.9698 ± 0.0048. The same measure for CATTGGGACA: 1.02 ± 0.019.

For the sequence CGGTTTTGAG, the switch fluorescence ratio is 1.01 ± 0.034. As to TTAAACGCGG, the switch fluorescence ratio amounted to 1.05 ± 0.066. With CACTAGATGG, the switch fluorescence ratio stood at 0.992 ± 0.02. TAAAACTTGG: the switch fluorescence ratio stood at 0.999 ± 0.065. The same measure for GGGAATTATA: 0.984 ± 0.018; for GACATAAGCA: 1.03 ± 0.017. Consider TTTTGGCGCT, for which the switch fluorescence ratio was found to be 1.005 ± 0.008. The same measure for TTTCTAATTT: 1.02 ± 0.015; for AGACTCACTG: 1.09 ± 0.011; for TGTGGGGGCG: 1.01 ± 0.017.

For the sequence GTAATTTATC, the switch fluorescence ratio came to 1.0089 ± 0.00052. For TTCCCATGTT the value was 1 ± 0.012. For ATACTTGGCT the value was 0.992 ± 0.02; for CAAAGATAGT, 0.996 ± 0.037. Consider GGGGAGGGTG, for which the switch fluorescence ratio came out at 1.05 ± 0.074. Consider GCCATATACA, for which the switch fluorescence ratio turned out to be 1.035 ± 0.01. On to GTCAGAACG, for which the switch fluorescence ratio is 1.03 ± 0.014. With GCGGGGA, the switch fluorescence ratio worked out at 0.998 ± 0.015. On to CGGGGCGG, for which the switch fluorescence ratio came to 0.952 ± 0.057.

Regarding ATTTTGGGGT, the switch fluorescence ratio was found to be 1 ± 0.014. For AAATGACGGC the value was 0.988 ± 0.15. Regarding GGGTAAGAG, the switch fluorescence ratio stood at 1.029 ± 0.0042. For the sequence TGAGATATTG, the switch fluorescence ratio turned out to be 0.997 ± 0.018. TTATGAGGCA: the switch fluorescence ratio was 0.978 ± 0.026. With TTACAGGGGG, the switch fluorescence ratio worked out at 1.03 ± 0.057. Turning to GGGCTCATGG, the switch fluorescence ratio amounted to 1.042 ± 0.0061. The same measure for TGACAGGGCT: 1.01 ± 0.011.

ATGAGGGGTT: the switch fluorescence ratio worked out at 0.995 ± 0.032. As to TAAGGATATG, the switch fluorescence ratio is 1.01 ± 0.0069. On to GACGAGGGAT, for which the switch fluorescence ratio is 1.1 ± 0.034. As to ATATCCTTCA, the switch fluorescence ratio was found to be 1.35 ± 0.43.

Regarding AGCATAGTCG, the switch fluorescence ratio came out at 1.04 ± 0.029.

In the case of TTTTTGGGTT, the switch fluorescence ratio is 1.02 ± 0.048.

Turning to TCGAGTATTC, the switch fluorescence ratio turned out to be 1.04 ± 0.013. Turning to ATGGGCAGAT, the switch fluorescence ratio was 0.994 ± 0.071.

Turning to AAGACTTTTT, the switch fluorescence ratio worked out at 1.025 ± 0.0076. As to TCCAGATTCT, the switch fluorescence ratio came out at 0.9828 ± 0.0086.

Consider TATGGTCCTG, for which the switch fluorescence ratio was 0.962 ± 0.023. As to AAGAAAGGGC, the switch fluorescence ratio was 1 ± 0.041. As for TAACGGCATG, the switch fluorescence ratio is 1.031 ± 0.0035. For the sequence TATGGATCTT, the switch fluorescence ratio is 0.983 ± 0.027.

CGTGTTGGAT: the switch fluorescence ratio worked out at 0.997 ± 0.062. As to TCACGGAAGT, the switch fluorescence ratio amounted to 1.022 ± 0.0036. On to TGTGTGTGAA, for which the switch fluorescence ratio came out at 0.996 ± 0.035.

As for TTTTGTAGCT, the switch fluorescence ratio was 0.963 ± 0.023. Turning to TTTGTTAGA, the switch fluorescence ratio amounted to 0.988 ± 0.012. With CGGAAAGACG, the switch fluorescence ratio came out at 1.05 ± 0.014. On to ATTGGGATGA, for which the switch fluorescence ratio was 0.976 ± 0.025. As to AGGGGACGGG, the switch fluorescence ratio was 1.05 ± 0.037. On to CAGAGTTCGG, for which the switch fluorescence ratio was found to be 1.03 ± 0.015.

Consider TTTTGTCACT, for which the switch fluorescence ratio is 1.034 ± 0.0031. In the case of ATATTTGTAT, the switch fluorescence ratio amounted to 1 ± 0.012. On to TAGGGACTAT, for which the switch fluorescence ratio was 1.02 ± 0.018. As for ACTTGTGACA, the switch fluorescence ratio came to 1.12 ± 0.18. Turning to TGATCATATT, the switch fluorescence ratio turned out to be 1.024 ± 0.0079. As to TAGAAGCCTG, the switch fluorescence ratio worked out at 1.03 ± 0.053.

As for TTGGGGTACA, the switch fluorescence ratio was determined as 0.9895 ± 0.0051. For the sequence TGGAGGTCGC, the switch fluorescence ratio amounted to 1.01 ± 0.049. Regarding TGAGGTCGCG, the switch fluorescence ratio stood at 0.9759 ± 0.0035.

As for TTTGTACCGT, the switch fluorescence ratio amounted to 1.06 ± 0.1. Take GCGGGGCAAG: the switch fluorescence ratio turned out to be 1.06 ± 0.11. ATTTCGTGGG: the switch fluorescence ratio is 0.978 ± 0.023. For CATGCGAGGG the value was 1 ± 0.035; for AGGTTGGTCG, 0.974 ± 0.064.

With TTTGGATGCG, the switch fluorescence ratio came out at 1.01 ± 0.077. Regarding TAAATGGCCA, the switch fluorescence ratio came out at 0.9798 ± 0.0051. Take TTGTAATGAG: the switch fluorescence ratio came out at 1.04 ± 0.065. As for TACGTTTTCT, the switch fluorescence ratio was found to be 1.02 ± 0.049.

As for AAGTTCGCCA, the switch fluorescence ratio was determined as 0.994 ± 0.01.

On to CGTAAATGTG, for which the switch fluorescence ratio worked out at 0.9668 ± 0.0066. With TTTGGCTAAA, the switch fluorescence ratio is 1 ± 0.044. For the sequence GATTGCGGTC, the switch fluorescence ratio is 1.03 ± 0.016. For AAGAGTGGCT the value was 1.03 ± 0.017; for TAGTTGTTTG, 0.9989 ± 0.0085. The same measure for GCTCTAGTTT: 1.02 ± 0.027; for TTTGTATATT: 1.01 ± 0.053; for TTGTTGA: 0.984 ± 0.042. For CGACAATGCC the value was 1.29 ± 0.03; for AGGAGAAAAT, 1.04 ± 0.028; for GTGATAAGAA, 1.009 ± 0.0057. Take GATCGGGAAC: the switch fluorescence ratio came to 1.06 ± 0.031. Turning to GCTGGTTGGC, the switch fluorescence ratio was 0.964 ± 0.016. Turning to AGGGGCGTAC, the switch fluorescence ratio came to 1.07 ± 0.022. Regarding GAGAGGGGCA, the switch fluorescence ratio was found to be 0.999 ± 0.018. TTGAGGGGGA: the switch fluorescence ratio stood at 1.01 ± 0.014. On to GTTGTTTGGG, for which the switch fluorescence ratio amounted to 0.99 ± 0.034.

In the case of TTGACTATCG, the switch fluorescence ratio came to 1 ± 0.076. For CAGGGACCTG, the switch fluorescence ratio was 1.03 ± 0.032. The same measure for GCTTCCGGCC: 1.15 ± 0.054; for CTTAGGGGGT: 1 ± 0.018. On to AAGATGGTGG, for which the switch fluorescence ratio came out at 1.004 ± 0.0057. For TTAATGGGGG, the switch fluorescence ratio came to 1.06 ± 0.25.

The values above are taken from the supplement of paper PMC10126150.
